From patent US20230134571A1 (INTERNATIONAL AIDS VACCINE INITIATIVE, published 2023)
Changes are numbered by the printed parent chain.

Columns and labels:
Test in all cases: cell-based or functional assay
[1] = biological target: HIV Env of isolate BF1266.431a (clade C) (HIV)
[2] = biological target: HIV Env of isolate REJO4541.67 (clade B) (HIV)
[3] = biological target: HIV Env of isolate AC10.0.29 (clade B) (HIV)
[4] = biological target: HIV Env of isolate 1054_07_TC4_1499 (clade B) (HIV)
[5] = biological target: HIV Env of isolate TRO.11 (clade B) (HIV)
[6] = biological target: HIV Env of isolate 1056_10_TA11_1826 (clade B) (HIV)
[7] = biological target: HIV Env of isolate X1632_S2_B10 (clade G) (HIV)
[8] = biological target: HIV Env of isolate P0402_C2_11 (clade G) (HIV)
[9] = biological target: HIV Env of isolate 0815.v3.c3 (clade ACD) (HIV)
[10] = biological target: HIV Env, isolate ZM214M.PL15 (HIV)
[11] = biological target: HIV Env, isolate 1056_10_TA11_1826 (HIV)
[12] = biological target: HIV Env, isolate 89-F1_2_25 (HIV)
[13] = biological target: HIV Env, isolate Ce2060_G9 (HIV)
[14] = biological target: HIV Env, isolate ZM249M.PL1 (HIV)
[15] = biological target: HIV Env, isolate Ce0682_E4 (HIV)
[16] = biological target: HIV Env, isolate QH0692.42 (HIV)
[17] = biological target: HIV Env, isolate ZM233M.PB6 (HIV)
[18] = biological target: HIV Env, isolate 3016.v5.c45 (HIV)
[19] = biological target: HIV Env, isolate 6244_13_B5_4576 (HIV)
[20] = biological target: HIV Env, isolate 21197826_V1 (HIV)
[21] = biological target: HIV Env, isolate CAP136.1.16_E6_1 (HIV)
[22] = biological target: HIV Env, isolate 6022.v7.c24 (HIV)
[23] = biological target: HIV Env, isolate CeCAP210_TA5 (HIV)
[24] = biological target: HIV Env, isolate 705010185 (HIV)
[25] = biological target: HIV Env, isolate ZM215F.PB8 (HIV)
[26] = biological target: HIV Env, isolate CAP45.2.00.G3 (HIV)
[27] = biological target: HIV Env, isolate 569-F1_37_10 (HIV)
[28] = biological target: HIV Env, isolate Ce2052_G10 (HIV)
[29] = biological target: HIV Env, isolate CeCAP177_1A3 (HIV)
[30] = biological target: HIV Env, isolate 20286961_C1_H8 (HIV)
[31] = biological target: HIV Env, isolate 0984.v2.c2 (HIV)
[32] = biological target: HIV Env, isolate 21561324_D3_B5 (HIV)
[33] = biological target: HIV Env, isolate 704010042 (HIV)
[34] = biological target: HIV Env, isolate 20883229_C9_H6 (HIV)
[35] = biological target: HIV Env, isolate CA392_H2_6 (HIV)
[36] = biological target: HIV Env, isolate CA240_A5.5 (HIV)
[37] = biological target: HIV Env, isolate CeCAP188_1_D1_14(Rev-) (HIV)
MuLV (Neg. Control) = biological target: MuLV (Neg. Control)
[38] = biological target: HIV Env, isolate 20417927.07 (HIV)

B1: ePGDM13 (antibody, V domains shown)
VH: QAQLVQSGPEVRKPGTSVKVSCKNPGNTLTTYDLHWVRQVPGQGLQWMGWISHEGDKKVIVERFKAKVTIDWDRSTNTAYLQLSGLTSEDTAVYYCAKGSKHRLRDYALYDEDGALNWAVDVDYLANLEFWGQGTAVTVSS
VL: DIVLTQSPLSLSVTPGESASISCKSSHSLQHGDRNNYLAWYVQKPGRSPQLLLDLASERASGVPDRFSGSGSEKDFTLKISRVETEDVGTYYCMQGRESPWTFGQGTKVDIK
IC50 (µg/ml) with constrains [1]: 0.004 µg/mL | IC50 (µg/ml) with constrains [2]: 0.002 µg/mL | IC50 (µg/ml) with constrains [3]: 0.194 µg/mL | IC50 (µg/ml) with constrains [4]: > 100 µg/mL | IC50 (µg/ml) with constrains [5]: 0.352 µg/mL | IC50 (µg/ml) with constrains [6]: 1.51 µg/mL | IC50 (µg/ml) with constrains [7]: 0.003 µg/mL | IC50 (µg/ml) with constrains [8]: 0.001 µg/mL | IC50 (µg/ml) with constrains [9]: > 100 µg/mL | IC80 (µg/ml) with constrains [9]: > 100 µg/mL

B2: ePGDM5 (antibody, V domains shown)
VH: B1 VH
VL: B1 VL with I2F, S26D, L53I, E73R, S81D, T85A
IC50 (µg/ml) with constrains [1]: 0.004 µg/mL | IC50 (µg/ml) with constrains [2]: 0.001 µg/mL | IC50 (µg/ml) with constrains [3]: 0.275 µg/mL | IC50 (µg/ml) with constrains [4]: > 100 µg/mL | IC50 (µg/ml) with constrains [5]: 0.315 µg/mL | IC50 (µg/ml) with constrains [6]: 0.893 µg/mL | IC50 (µg/ml) with constrains [7]: 0.003 µg/mL | IC50 (µg/ml) with constrains [8]: 0.004 µg/mL | IC50 (µg/ml) with constrains [9]: > 100 µg/mL | IC80 (µg/ml) with constrains [9]: > 100 µg/mL

B3: ePGDM5 (antibody, V domains shown)
VH: B1 VH
VL: B1 VL with I2F, S26D, L53I, E73R, S81D, T85A
IC80 (µg/ml) with constrains [10]: > 100 µg/mL | IC80 (µg/ml) with constrains [11]: 3.57 µg/mL | IC80 (µg/ml) with constrains [12]: 0.006 µg/mL | IC80 (µg/ml) with constrains [13]: 0.044 µg/mL | IC80 (µg/ml) with constrains [14]: 0.138 µg/mL | IC80 (µg/ml) with constrains [15]: 0.021 µg/mL | IC80 (µg/ml) with constrains [16]: > 100 µg/mL | IC80 (µg/ml) with constrains [17]: 0.007 µg/mL | IC80 (µg/ml) with constrains [18]: > 100 µg/mL | IC80 (µg/ml) with constrains [19]: 75.6 µg/mL

B4: PGDM1400 (antibody, V domains shown)
VH: B1 VH with A2V, Q3H, V5T, N24A, T30K, Q39S, E89G, E112D, A126S
VL: B1 VL with I2F, L9H, Q30I, L53I, D54Y, E58S, E73D
IC50 (µg/ml) with constrains [1]: 0.006 µg/mL | IC50 (µg/ml) with constrains [2]: 0.004 µg/mL | IC50 (µg/ml) with constrains [3]: 0.549 µg/mL | IC50 (µg/ml) with constrains [4]: > 100 µg/mL | IC50 (µg/ml) with constrains [5]: 0.206 µg/mL | IC50 (µg/ml) with constrains [6]: 3.38 µg/mL | IC50 (µg/ml) with constrains [7]: 0.034 µg/mL | IC50 (µg/ml) with constrains [8]: 0.007 µg/mL | IC50 (µg/ml) with constrains [9]: > 100 µg/mL | IC80 (µg/ml) with constrains [9]: > 100 µg/mL

B5: PGDM1400 (antibody, V domains shown)
VH: B1 VH with A2V, Q3H, V5T, N24A, T30K, Q39S, E89G, E112D, A126S
VL: B1 VL with I2F, L9H, Q30I, L53I, D54Y, E58S, E73D
IC80 (µg/ml) with constrains [10]: > 100 µg/mL | IC80 (µg/ml) with constrains [11]: 13.5 µg/mL | IC80 (µg/ml) with constrains [12]: 0.013 µg/mL | IC80 (µg/ml) with constrains [13]: 0.099 µg/mL | IC80 (µg/ml) with constrains [14]: 0.101 µg/mL | IC80 (µg/ml) with constrains [15]: 0.037 µg/mL | IC80 (µg/ml) with constrains [16]: > 100 µg/mL | IC80 (µg/ml) with constrains [17]: 0.007 µg/mL | IC80 (µg/ml) with constrains [18]: > 100 µg/mL | IC80 (µg/ml) with constrains [19]: > 100 µg/mL

B6: ePGDM9 (antibody, V domains shown)
VH: B1 VH
VL: B1 VL with H27Q, Q30I, L53I, E73R
IC80 (µg/ml) with constrains [10]: > 100 µg/mL | IC80 (µg/ml) with constrains [11]: 3.61 µg/mL | IC80 (µg/ml) with constrains [12]: 0.004 µg/mL | IC80 (µg/ml) with constrains [13]: 0.538 µg/mL | IC80 (µg/ml) with constrains [14]: 0.008 µg/mL | IC80 (µg/ml) with constrains [15]: 0.022 µg/mL | IC80 (µg/ml) with constrains [16]: > 100 µg/mL | IC80 (µg/ml) with constrains [17]: 0.007 µg/mL | IC80 (µg/ml) with constrains [18]: > 100 µg/mL | IC80 (µg/ml) with constrains [19]: 50.2 µg/mL | IC50 [20]: 12.7 µg/mL | IC80 [20]: 34.6 µg/mL | IC50 [21]: > 50 µg/mL | IC80 [21]: > 50 µg/mL | IC50 [22]: > 50 µg/mL | IC80 [22]: > 50 µg/mL | IC50 [23]: 0.009 µg/mL | IC80 [23]: 0.073 µg/mL | IC50 [24]: 0.706 µg/mL | IC80 [24]: 2.15 µg/mL | IC50 [25]: < 0.0006 µg/mL | IC80 [25]: 0.007 µg/mL | IC50 [26]: < 0.0006 µg/mL | IC80 [26]: < 0.0006 µg/mL | IC50 [27]: > 50 µg/mL | IC80 [27]: > 50 µg/mL | IC50 [28]: 0.001 µg/mL | IC80 [28]: 0.005 µg/mL | IC50 [29]: 0.153 µg/mL | IC80 [29]: 1.06 µg/mL | IC50 [30]: 0.023 µg/mL | IC80 [30]: > 50 µg/mL | IC50 [31]: 2.81 µg/mL | IC80 [31]: > 50 µg/mL | IC50 [32]: 0.004 µg/mL | IC80 [32]: 0.038 µg/mL | IC50 [33]: < 0.0006 µg/mL | IC80 [33]: < 0.0006 µg/mL | IC50 [34]: > 50 µg/mL | IC80 [34]: > 50 µg/mL | IC50 [35]: 0.032 µg/mL | IC80 [35]: 0.129 µg/mL | IC50 [36]: > 50 µg/mL | IC80 [36]: > 50 µg/mL | IC50 [37]: > 50 µg/mL | IC80 [37]: > 50 µg/mL | IC50 (MuLV (Neg. Control)): > 50 µg/mL | IC80 (MuLV (Neg. Control)): > 50 µg/mL | IC50 [38]: 0.03 µg/mL | IC80 [38]: 0.679 µg/mL

B7: ePGDM13 (antibody, V domains shown)
VH: B1 VH
VL: B1 VL
IC80 (µg/ml) with constrains [10]: > 100 µg/mL | IC80 (µg/ml) with constrains [11]: 6.03 µg/mL | IC80 (µg/ml) with constrains [12]: 0.006 µg/mL | IC80 (µg/ml) with constrains [13]: 0.071 µg/mL | IC80 (µg/ml) with constrains [14]: 0.056 µg/mL | IC80 (µg/ml) with constrains [15]: 0.043 µg/mL | IC80 (µg/ml) with constrains [16]: > 100 µg/mL | IC80 (µg/ml) with constrains [17]: 0.006 µg/mL | IC80 (µg/ml) with constrains [18]: > 100 µg/mL | IC80 (µg/ml) with constrains [19]: > 100 µg/mL

B8: ePGDM9 (antibody, V domains shown)
VH: B1 VH
VL: B1 VL with H27Q, Q30I, L53I, E73R
IC50 (µg/ml) with constrains [1]: 0.002 µg/mL | IC50 (µg/ml) with constrains [2]: 0.001 µg/mL | IC50 (µg/ml) with constrains [3]: 0.074 µg/mL | IC50 (µg/ml) with constrains [4]: > 100 µg/mL | IC50 (µg/ml) with constrains [5]: 0.163 µg/mL | IC50 (µg/ml) with constrains [6]: 0.903 µg/mL | IC50 (µg/ml) with constrains [7]: 0.003 µg/mL | IC50 (µg/ml) with constrains [8]: 0.001 µg/mL | IC50 (µg/ml) with constrains [9]: > 100 µg/mL | IC80 (µg/ml) with constrains [9]: > 100 µg/mL
